Results: the Human Domainome abundance scans (Beltran et al. 2025)
± gives the uncertainty stated by the source.

B1: Homeobox protein SIX3, residues 212 to 262; numbered along this chain, O95343 (parent)
chain: CFKERTRSLLREWYLQDPYPNPSKKRELAQATGLTPTQVGNWFKNRRQRDR

Variants of: B1
Assay: abundance fitness (aPCA) (normalised: wild type 0, dead -1); higher = more abundant; growth selection in yeast, the domain comes from the species named
Conditions: Homo sapiens

Abundance fitness, by site and new letter:
G40: A -0.146 ± 0.063
Q30: E -0.068 ± 0.094; F -0.284 ± 0.065; V -0.163 ± 0.054; D 0.037 ± 0.084; C -0.243 ± 0.039; I 0.228 ± 0.087; P -0.93 ± 0.15; G -0.166 ± 0.05; N 0.114 ± 0.09; H -0.149 ± 0.048; S -0.044 ± 0.039; W -0.097 ± 0.072; A -0.19 ± 0.059; L -0.139 ± 0.045; R -0.329 ± 0.05; Y -0.314 ± 0.099
E27: R -0.573 ± 0.078; Q -0.357 ± 0.16; K 0.121 ± 0.1; C -0.819 ± 0.2; D -0.253 ± 0.16; W -0.678 ± 0.083; N -0.947 ± 0.39; V -0.593 ± 0.095; A -0.55 ± 0.09; L -0.515 ± 0.079; S -0.322 ± 0.079; F -0.276 ± 0.049; I -0.486 ± 0.22; T -0.668 ± 0.2; M -0.373 ± 0.07; P -0.785 ± 0.18; H -0.446 ± 0.3
S23: V -0.094 ± 0.064; M -0.277 ± 0.14; E 0.002 ± 0.08; G -0.079 ± 0.056; N -0.249 ± 0.08; C -0.166 ± 0.17; K -0.512 ± 0.19; Q -0.022 ± 0.11; D 0.175 ± 0.064; H -0.356 ± 0.059; A 0.072 ± 0.076; P -0.341 ± 0.12; W -0.729 ± 0.15; L -0.342 ± 0.059; Y -0.761 ± 0.23; T -0.005 ± 0.075; F -0.343 ± 0.11; R -0.551 ± 0.074
T37: N -0.27 ± 0.12; R 0.014 ± 0.058; V -0.091 ± 0.075; F -0.678 ± 0.19; D 0.326 ± 0.081; S -0.186 ± 0.068; Q 0.211 ± 0.078; L -0.255 ± 0.045; W -0.441 ± 0.074; H -0.099 ± 0.074; I -0.184 ± 0.044; G -0.126 ± 0.047; P -0.416 ± 0.096; A -0.11 ± 0.072; E 0.164 ± 0.065; C -0.051 ± 0.094; M -0.055 ± 0.091
P20: T -0.838 ± 0.23; W -1.13 ± 0.18; Q -0.812 ± 0.39; Y -0.707 ± 0.075; S -1.05 ± 0.3; V -0.477 ± 0.081; R -0.819 ± 0.062; N -0.912 ± 0.31
N21: V -0.14 ± 0.047; P 0.027 ± 0.063; F -0.499 ± 0.21; S 0.078 ± 0.056; H -0.171 ± 0.097; G -0.042 ± 0.057; Q -0.553 ± 0.34; L -0.375 ± 0.049; I -0.433 ± 0.17; Y -0.873 ± 0.1; T 0.224 ± 0.068; A -0.159 ± 0.052; M -0.277 ± 0.067; D 0.322 ± 0.086; R -0.351 ± 0.057; W -0.613 ± 0.077; K 0.23 ± 0.091
T32: H 0.036 ± 0.29; R -0.87 ± 0.1; D -0.96 ± 0.12; N -0.637 ± 0.2; M -0.59 ± 0.11; Y -1 ± 0.19; F -0.922 ± 0.26; S -0.43 ± 0.059; Q -1.23 ± 0.39; E -0.908 ± 0.061; W -0.821 ± 0.11; P -0.802 ± 0.2; G -0.903 ± 0.11; L -0.409 ± 0.072; V -0.257 ± 0.072; C -0.026 ± 0.055; I -0.591 ± 0.14; A -0.399 ± 0.079; K -1.02 ± 0.18
K24: F -0.672 ± 0.094; C -0.399 ± 0.085; A 0.11 ± 0.074; S -0.193 ± 0.06; P -0.924 ± 0.14; G -0.417 ± 0.068; E -0.364 ± 0.092; R -0.137 ± 0.047; Y -0.709 ± 0.2; M -0.246 ± 0.15; T -0.097 ± 0.092; I -0.072 ± 0.09; H -0.219 ± 0.096; W -0.896 ± 0.13; Q -0.112 ± 0.093; V -0.101 ± 0.053; L -0.366 ± 0.084
Q38: C -0.393 ± 0.15; H -0.81 ± 0.23; W -0.774 ± 0.081; R -0.802 ± 0.067; P -1.13 ± 0.18; A -0.338 ± 0.068; N -0.728 ± 0.24; V -0.418 ± 0.058; L -0.64 ± 0.052; F -0.663 ± 0.43; M -0.619 ± 0.09; S -0.676 ± 0.077; E -0.606 ± 0.19; T -0.43 ± 0.15; I -0.733 ± 0.31; G -0.761 ± 0.1; K -0.886 ± 0.2; D -0.937 ± 0.38
G33: E -0.915 ± 0.12; C -0.643 ± 0.12; S -0.555 ± 0.052; Y -0.978 ± 0.28; H -0.542 ± 0.12; Q -0.57 ± 0.087; I -0.902 ± 0.25; T -0.766 ± 0.17; M -0.75 ± 0.11; R -0.613 ± 0.057; P -0.746 ± 0.16; D -0.412 ± 0.079; V -0.779 ± 0.077; N 0.029 ± 0.12; A -0.674 ± 0.1; F -0.774 ± 0.065; K -0.494 ± 0.073; L -0.812 ± 0.057
L34: Q -0.634 ± 0.15; C -0.834 ± 0.093; I -0.445 ± 0.082; Y -0.778 ± 0.14; N -0.918 ± 0.18; G -0.72 ± 0.086; V -0.881 ± 0.11; R -0.847 ± 0.065; F -0.823 ± 0.13; W -0.606 ± 0.097; P -0.75 ± 0.21; T -0.73 ± 0.21; H -0.502 ± 0.33; M -0.186 ± 0.093; A -0.72 ± 0.097; K -0.56 ± 0.089; D -0.798 ± 0.2; S -0.623 ± 0.089
A29: W -0.704 ± 0.16; R -1.11 ± 0.19; G -0.468 ± 0.065; M -1.03 ± 0.19; D -0.93 ± 0.41; E -0.888 ± 0.16; T -0.76 ± 0.26; S -0.125 ± 0.084; L -0.911 ± 0.18; H -0.777 ± 0.34; P -0.911 ± 0.25; C -0.588 ± 0.24; K -0.856 ± 0.24; Q -0.897 ± 0.37
L28: Y 0.069 ± 0.095; E -1.04 ± 0.28; F -0.07 ± 0.067; V -0.147 ± 0.079; M 0.029 ± 0.054; Q -0.872 ± 0.11; T -0.876 ± 0.24; H -0.778 ± 0.26; I -0.162 ± 0.14; W -0.572 ± 0.056; A -1.05 ± 0.27; D -0.805 ± 0.22; C -0.59 ± 0.045; R -0.895 ± 0.091; N -0.99 ± 0.16; S -0.833 ± 0.11; K -0.668 ± 0.095
V39: S -0.916 ± 0.083; L -0.84 ± 0.08; C -0.969 ± 0.37; Y -0.897 ± 0.28; G -0.731 ± 0.083; D -0.893 ± 0.074; N -1.01 ± 0.24; F -0.848 ± 0.25; H -0.998 ± 0.32; R -0.873 ± 0.064; P -0.972 ± 0.12; K -0.945 ± 0.19; T -0.573 ± 0.1; E -0.96 ± 0.099; Q -0.78 ± 0.067; A -0.829 ± 0.088
P22: H -0.717 ± 0.42; I -0.014 ± 0.05; M -0.266 ± 0.11; E 0.055 ± 0.048; A -0.108 ± 0.061; S -0.107 ± 0.05; N -0.232 ± 0.084; Q -0.212 ± 0.094; W 0.125 ± 0.087; L 0.156 ± 0.038; K -0.445 ± 0.078; V 0.03 ± 0.058; C -0.359 ± 0.21; D -0.195 ± 0.12; R -0.362 ± 0.06; Y -0.102 ± 0.12
A31: H -0.062 ± 0.11; E -0.076 ± 0.048; W -0.326 ± 0.052; Q -0.023 ± 0.077; Y -0.349 ± 0.069; M -0.087 ± 0.078; K -0.094 ± 0.094; I -0.148 ± 0.1; N -0.506 ± 0.16; T -0.147 ± 0.063; V -0.169 ± 0.069; D -0.475 ± 0.12; G -0.651 ± 0.044; P -0.892 ± 0.27; C -0.296 ± 0.095; F -0.749 ± 0.18; L 0.088 ± 0.065; S -0.186 ± 0.06
P36: W -0.536 ± 0.1; H -0.305 ± 0.13; L -0.087 ± 0.062; I -0.096 ± 0.11; F 0.184 ± 0.075; D -0.638 ± 0.19; T -0.066 ± 0.072; E 0.066 ± 0.046; N -0.815 ± 0.34; S -0.274 ± 0.07; R -0.307 ± 0.049; Q -0.235 ± 0.12; G -0.596 ± 0.043; M 0.03 ± 0.074; C -0.241 ± 0.051; K -0.048 ± 0.074; A -0.226 ± 0.09
T35: V -0.842 ± 0.05; L -0.778 ± 0.069; P -0.894 ± 0.15; W -0.848 ± 0.17; N -0.259 ± 0.13; A -0.861 ± 0.13; F -0.77 ± 0.37; H -0.763 ± 0.41; R -0.704 ± 0.045; Q -0.252 ± 0.21; D -0.697 ± 0.096; Y -0.826 ± 0.12; M -0.715 ± 0.067; E -0.809 ± 0.16; G -0.827 ± 0.063; K -0.726 ± 0.14; S -0.044 ± 0.055; C -0.645 ± 0.12
K25: N -0.344 ± 0.25; L -0.061 ± 0.063; Y -0.316 ± 0.1; T 0.133 ± 0.062; W -0.334 ± 0.056; G -0.579 ± 0.1; C -0.103 ± 0.097; M 0.004 ± 0.09; R -0.177 ± 0.063; A -0.326 ± 0.057; D -0.753 ± 0.062; P -0.84 ± 0.067; E 0.008 ± 0.079; V -0.019 ± 0.044; Q -0.109 ± 0.11; S -0.478 ± 0.085
R26: G -0.209 ± 0.067; N 0.385 ± 0.1; E -0.002 ± 0.058; Y -0.286 ± 0.13; H 0.047 ± 0.084; F -0.228 ± 0.065; L 0.158 ± 0.064; M -0.14 ± 0.11; A 0.181 ± 0.056; W -0.266 ± 0.066; D -0.667 ± 0.32; K -0.01 ± 0.085; S -0.045 ± 0.042; C -0.044 ± 0.052; P -0.889 ± 0.1; V 0.047 ± 0.049; T -0.091 ± 0.092; Q 0.091 ± 0.09
